Measurements taken from patent US20160244525A1.

Legend:
[1] = molecular target: FGFR3-IIIb (human); assay: SPR (Biacore T100), IgG captured by anti-human Fc, FGFR flowed
[2] = molecular target: FGFR3-IIIb (human); assay: SPR
[3] = molecular target: FGFR3-IIIb (D2D3) (human); assay: SPR (Biacore)
[4] = molecular target: FGFR3-D2 (human) (UniProt P22607); assay: SPR (Biacore)
[5] = molecular target: FGFR3-IIIb (human); assay: blocking ELISA: FGFR3-IIIb-Fc captured on an anti-human Fc plate, antibody titrated, FGF-1 (with heparin) is the blocked ligand, bound FGF-1 read as OD450

R3Mab (antibody), sequence (VH): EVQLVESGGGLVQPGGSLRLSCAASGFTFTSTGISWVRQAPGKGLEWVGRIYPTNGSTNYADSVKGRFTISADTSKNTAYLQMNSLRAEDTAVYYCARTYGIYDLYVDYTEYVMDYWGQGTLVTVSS
R3Mab (antibody), sequence (VL): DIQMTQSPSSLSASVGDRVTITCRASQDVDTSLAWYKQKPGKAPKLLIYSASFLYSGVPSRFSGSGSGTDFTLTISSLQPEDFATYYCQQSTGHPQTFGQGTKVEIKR
FGFR3-IIIb (human), sequence (chain, as listed by the source limits assumed): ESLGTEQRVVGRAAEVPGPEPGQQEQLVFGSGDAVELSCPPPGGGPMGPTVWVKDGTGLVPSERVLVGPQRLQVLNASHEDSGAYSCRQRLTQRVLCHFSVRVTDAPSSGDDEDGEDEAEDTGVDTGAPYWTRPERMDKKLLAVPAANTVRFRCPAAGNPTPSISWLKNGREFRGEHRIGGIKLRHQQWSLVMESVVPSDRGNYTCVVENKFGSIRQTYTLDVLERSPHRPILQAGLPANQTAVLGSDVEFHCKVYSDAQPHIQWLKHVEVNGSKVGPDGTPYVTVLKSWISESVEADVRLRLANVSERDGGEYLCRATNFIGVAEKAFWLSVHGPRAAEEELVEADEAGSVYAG
FGFR3-IIIb (D2D3) (human), sequence (chain, as listed by the source limits assumed): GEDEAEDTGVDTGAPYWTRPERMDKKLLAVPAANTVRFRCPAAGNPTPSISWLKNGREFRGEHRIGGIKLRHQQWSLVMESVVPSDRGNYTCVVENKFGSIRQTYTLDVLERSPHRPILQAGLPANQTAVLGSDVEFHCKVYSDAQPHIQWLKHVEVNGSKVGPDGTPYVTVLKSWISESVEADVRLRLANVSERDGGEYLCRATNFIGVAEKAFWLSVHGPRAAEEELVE
FGFR3-D2 (human), sequence (P22607 150-248 limits assumed): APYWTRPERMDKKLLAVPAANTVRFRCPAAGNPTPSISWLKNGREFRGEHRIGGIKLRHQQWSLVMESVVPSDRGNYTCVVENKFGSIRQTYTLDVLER

Question: Which results are given for R3Mab (antibody)?
Answer: Kd [1]: 0.24 nM; Kd [2]: 0.24 nM; Kd [3]: 0.24 nM; Kd [4]: 0.26 nM; IC50 (read off the curve) [5]: 1 to 2 nM
